Experimental data published in patent US20250092108A1 (Xencor, published 2025).

T1: IL-2 receptors (high-affinity IL-2Rαβγ or intermediate-affinity IL-2Rβγ) on PBMC lymphocytes (UniProt P01589 22-272; P14784 27-551; P31785 23-369, limits assumed)
T1 sequence (looked up) 1: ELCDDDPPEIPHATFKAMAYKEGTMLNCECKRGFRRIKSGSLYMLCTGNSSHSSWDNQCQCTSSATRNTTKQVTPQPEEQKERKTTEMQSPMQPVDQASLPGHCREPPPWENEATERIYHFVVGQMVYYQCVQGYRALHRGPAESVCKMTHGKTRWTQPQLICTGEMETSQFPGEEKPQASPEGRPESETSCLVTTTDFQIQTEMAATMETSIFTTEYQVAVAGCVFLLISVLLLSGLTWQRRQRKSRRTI
T1 sequence (looked up) 2: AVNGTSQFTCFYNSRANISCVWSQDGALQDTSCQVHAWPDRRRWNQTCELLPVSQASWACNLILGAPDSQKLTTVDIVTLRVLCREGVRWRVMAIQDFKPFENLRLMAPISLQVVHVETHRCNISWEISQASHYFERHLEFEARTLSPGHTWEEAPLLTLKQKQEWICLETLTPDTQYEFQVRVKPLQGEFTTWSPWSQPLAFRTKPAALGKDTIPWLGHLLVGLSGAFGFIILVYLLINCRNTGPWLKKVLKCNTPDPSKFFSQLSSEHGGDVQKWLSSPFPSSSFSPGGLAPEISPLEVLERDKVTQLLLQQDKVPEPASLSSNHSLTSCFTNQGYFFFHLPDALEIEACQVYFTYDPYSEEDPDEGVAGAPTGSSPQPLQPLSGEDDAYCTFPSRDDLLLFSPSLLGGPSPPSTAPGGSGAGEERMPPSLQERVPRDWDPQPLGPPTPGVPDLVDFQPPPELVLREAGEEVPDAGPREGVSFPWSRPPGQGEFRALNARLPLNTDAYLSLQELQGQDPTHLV
T1 sequence (looked up) 3: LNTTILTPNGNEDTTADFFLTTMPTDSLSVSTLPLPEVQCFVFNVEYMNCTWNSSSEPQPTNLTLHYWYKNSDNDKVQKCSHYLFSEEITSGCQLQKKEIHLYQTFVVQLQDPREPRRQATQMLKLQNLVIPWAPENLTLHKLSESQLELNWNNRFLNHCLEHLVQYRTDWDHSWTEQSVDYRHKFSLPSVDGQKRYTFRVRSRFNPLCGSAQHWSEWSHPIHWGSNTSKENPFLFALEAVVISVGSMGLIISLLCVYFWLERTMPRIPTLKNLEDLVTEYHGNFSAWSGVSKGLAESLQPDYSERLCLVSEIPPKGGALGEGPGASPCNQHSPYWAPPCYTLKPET


Molecular target: T1, IL-2 receptors (high-affinity IL-2Rαβγ …)
Test: cell-based or functional assay

| EC50, induction of STAT5 phosphorylation (in vitro potency) [nM] | Binder |
| --- | --- |
| 1 | XENP26105 (Fc fusion) chain 1: EPKSSDKTHTCPPCPAPPVAGPSVFLFPPKPKDTLMISRTPEVTCVVVDVKHEDPEVKFNWYVDGVEVHNAKTKPREEEYNSTYRVVSVLTVLHQDWLNGKEYKCKVSNKALPAPIEKTISKAKGQPREPQVYTLPPSREEMTKNQVSLTCDVSGFYPSDIAVEWESDGQPENNYKTTPPVLDSDGSFFLYSKLTVDKSRWEQGDVFSCSVMHEALHNHYTQKSLSLSPGK chain 2: APASSSTKKTQLQLEHLLLNLQMILNGINNYKNPKLRRMLTFKFYMPKKATELKHLQCLEEELKPLEEVLNLAQSKNFHLRPRDLISNINVIVLELKGSETTFMCEYADETATIVEFLNRWITFSQSIISTLTEPKSSDKTHTCPPCPAPPVAGPSVFLFPPKPKDTLMISRTPEVTCVVVDVKHEDPEVKFNWYVDGVEVHNAKTKPREEQYNSTYRVVSVLTVLHQDWLNGKEYKCKVSNKALPAPIEKTISKAKGQPREPQVYTLPPSREQMTKNQVKLTCLVKGFYPSDIAVEWESNGQPENNYKTTPPVLDSDGSFFLYSKLTVDKSRWQQGNVFSCSVMHEALHNHYTQKSLSLSPGK |
| 5 | XENP26109 (Fc fusion) chain 1: EPKSSDKTHTCPPCPAPPVAGPSVFLFPPKPKDTLMISRTPEVTCVVVDVKHEDPEVKFNWYVDGVEVHNAKTKPREEEYNSTYRVVSVLTVLHQDWLNGKEYKCKVSNKALPAPIEKTISKAKGQPREPQVYTLPPSREEMTKNQVSLTCDVSGFYPSDIAVEWESDGQPENNYKTTPPVLDSDGSFFLYSKLTVDKSRWEQGDVFSCSVMHEALHNHYTQKSLSLSPGK chain 2: APASSSTKKTQLQLEHLLLNLQMILNGINNYKNPKLTRMLTFKFYMPKKATELKHLQCLEEELKPLEEVLKLAQSKNFHLRPRDLISNINVIVLELKGSETTFMCEYADETATIVEFLNRWITFSQSIISTLTEPKSSDKTHTCPPCPAPPVAGPSVFLFPPKPKDTLMISRTPEVTCVVVDVKHEDPEVKFNWYVDGVEVHNAKTKPREEQYNSTYRVVSVLTVLHQDWLNGKEYKCKVSNKALPAPIEKTISKAKGQPREPQVYTLPPSREQMTKNQVKLTCLVKGFYPSDIAVEWESNGQPENNYKTTPPVLDSDGSFFLYSKLTVDKSRWQQGNVFSCSVMHEALHNHYTQKSLSLSPGK |
